{"source": "paper PMC3382596", "about": "“A Phthalimide Derivative That Inhibits Centrosomal Clustering Is Effective on Multiple Myeloma” (PLoS ONE, 2012)", "proteins": {"B1": {"name": "Recombinant NPM(1-183), the 183 NH2-terminal amino acids of nucleophosmin 1 (domain or fragment, human, UniProt P06748 1-183, looked up)", "chain": "MEDSMDMDMSPLRPQNYLFGCELKADKDYHFKVDNDENEHQLSLRTVSLGAGAKDELHIVEAEAMNYEGSPIKVTLATLKMSVQPTVSLGGFEITPPVVLRLKCGSGPVHISGQHLVAVEEDAESEDEEEEDVKLLSISGKRSAPGGGSKVPQKKVKLAADEDDDDDDEEDDDEDDDDDDFDD", "notes": "nucleophosmin 1 (NPM/B23), clone from a cDNA library of the human multiple myeloma cell line KMS34; also called NPM/B23; 1-183 NPM; source: E. coli, partially purified, fractionated by gel filtration"}}, "target": "the molecule itself", "experiment": "SEC; gel filtration of recombinant NPM(1-183) from E. coli to separate oligomeric and monomeric forms; fractions checked by SDS-PAGE with CBB staining", "data": [{"protein": "B1", "values": [{"measurement": "binding result", "value": "binds"}]}]}
